Measurements from article PMC3082517 (PLoS Biology, 2011).

Columns and labels:
[1] = target: T1, p75^NTR with effectors TRAF6, RIP2, RhoGDI (Rattus norvegicus, UniProt P07174); assay: Co-immunoprecipitation of p75NTR with effectors TRAF6, RIP2, RhoGDI in co-transfected HEK293 cells; format: cell-based; settings: co-transfected HEK293, 30 min; 100 nM DHEA, 100 ng/ml NGF
T1 construct: expressed in transfected cells; host or cells: HEK293
T1 sequence (P07174 30-425): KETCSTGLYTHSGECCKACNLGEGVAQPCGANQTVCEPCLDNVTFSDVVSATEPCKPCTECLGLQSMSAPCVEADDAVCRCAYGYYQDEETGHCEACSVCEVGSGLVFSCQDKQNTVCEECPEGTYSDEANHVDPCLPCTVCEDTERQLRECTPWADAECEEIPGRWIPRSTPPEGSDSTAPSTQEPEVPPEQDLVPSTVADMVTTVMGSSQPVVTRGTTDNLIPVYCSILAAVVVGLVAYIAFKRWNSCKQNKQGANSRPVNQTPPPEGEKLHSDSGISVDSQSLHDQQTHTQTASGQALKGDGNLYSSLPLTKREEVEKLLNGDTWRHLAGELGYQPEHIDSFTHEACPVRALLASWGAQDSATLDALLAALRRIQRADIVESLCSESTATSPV
Experimental: (§1) HEK293 cells were transfected with the appropriate plasmids (TrkA, p75^NTR, RIP2, TRAF-6, and RhoGDI) by using Lipofectamine 2000 (Invitrogen). Cells were harvested 48 h after transfection and suspended in lysis buffer (50 mM Tris-HCl, 0.15 M NaCl, 1% Triton-X100, pH 7.4) supplemented with protease inhibitors. Lysates were precleared for 1 h with Protein A-Sepharose beads (Amersham) and immunoprecipitated with the appropriate antibody (pTyr, Flag, or c-myc) overnight at 4°C. Protein A Sepharose beads were incubated with the lysates for 4 h at 4°C with gentle shaking. […] Beads were collected by centrifugation, washed four times with lysis buffer, and resuspended in SDS loading buffer. Proteins were separated by SDS/PAGE, followed by immunoblotting with specific antibodies.

p75^NTR = assay: p75NTR protein levels in serum deprived PC12 cells (immunoblotting); format: cell-based; settings: serum deprived PC12, between 24 and 48 h; 100 nM DHEA, 100 ng/ml NGF; n = 5, p<0.01
Experimental: (§2) PC12 or HEK293 cells lysates were electrophoresed through a 12% SDS-polyacrylamide gel, and then proteins were transferred to nitrocellulose membranes, which were processed according to standard Western blotting procedures, as previously described. To detect protein levels, membranes were incubated with the appropriate antibodies: Bcl-2 (dilution 1∶500), phospho TrkA (dilution 1∶500), total TrkA (dilution1∶500), p75^NTR (dilution 1∶500), phospho Shc (dilution 1∶1000), total Shc (dilution 1∶1000), phospho Akt (dilution 1∶500), total Akt (dilution 1∶500), phospho ERK1/2 (dilution 1∶500), and total ERK1/2 (dilution 1∶500). Proteins were visualized using the ECL Western blotting kit (ECL Amersham Biosciences, UK), and blots were exposed to Kodak X-Omat AR films. A PC-based Image Analysis program was used to quantify the intensity of each band (Image Analysis, Inc., Ontario, Canada).
(§3) To normalize for protein content the blots were stripped and stained with GAPDH antibody (dilution 1∶1000); the concentration of each target protein was normalized versus GAPDH. Where phosphorylation of TrkA or kinases was measured, membranes were first probed for the phosphorylated form of the protein, then stripped, and probed for the total protein.

TrkA [2] = target: T2, TrkA (Rattus norvegicus, UniProt P35739); assay: TrkA phosphorylation in HEK293^TrkA transfectants (anti-tyrosine IP, Western blot); format: cell-based; parameters: expressed in transfected cells; host or cells: HEK293; settings: 10 min (and 20 min), steroids 100 nM, NGF 100 ng/ml
Experimental: as §1, §2, §3

[3] = tested on: Shc, ERK1/2, and Akt kinases; assay: Phosphorylation of Shc, ERK1/2 and Akt kinases in PC12 cells (Western blot); format: cell-based; settings: serum deprived naive PC12 cells, 10 min; 100 nM DHEA, 100 ng/ml NGF
Experimental: as §2, §3

TrkA receptor = target: TrkA receptor; parameters: method as in PMID 16939974; settings: read-out: KD of NGF binding to TrkA receptor; cited from earlier work
TrkA [4] = target: T2, TrkA; assay: Tyr490 TrkA phosphorylation in naive PC12 cells (Western blot); format: cell-based; parameters: PC12 cells, endogenously expressing TrkA receptors; endogenous in cells; host or cells: PC12; settings: 10 min, DHEA 100 nM, NGF 100 ng/ml
Experimental: as §2, §3

p75^NTR receptor = target: p75^NTR receptor; parameters: method as in PMID 16939974; settings: read-out: KD of NGF binding to p75NTR receptor; cited from earlier work
nnr5 cells = assay: Apoptosis of nnr5 cells (PC12 clone expressing only p75NTR); format: cell-based; settings: DHEA 100 nM, NGF 100 ng/ml
Experimental: PC12 cells were obtained from LGC Promochem (LGC Standards GmbH, Germany) and nnr5 cells from Dr. C.F. Ibáñez (Karolinska Institute). Both cell types were grown in RPMI 1640 containing 2 mM L-glutamine, 15 mM HEPES, 100 units/ml penicillin, 0.1 mg/ml streptomycin, and 10% horse serum, 5% fetal calf serum (both charcoal-stripped for removing endogenous steroids) at 5% CO2 and 37°C. HEK-293 cells were obtained from LGC Promochem. Cells were grown in DMEM medium containing 10% fetal bovine serum (charcoal-stripped for removing endogenous steroids), 100 units/ml penicillin, and 0.1 mg/ml streptomycin, at 5% CO2 and […]. HEK-293 and PC12 cells were transfected with Lipofectamine 2000 (InVitrogen) according to manufacturer's instructions. Transfected cells were typically used on the 2nd day after transfection.
PC12 cells were cultured in 12-well plates, and 24 h later they were transfected with the si/shRNAs for TrkA and/or p75^NTR. […] Apoptosis was quantified 24 h later with annexin V-FITC and PI (BD Pharmingen) according to our protocol.

PC12 cell membranes = assay: [3H]-DHEA displacement, PC12 cell membranes; format: binding; settings: unpublished data
Experimental: HEK293 cells transfected with an empty vector (HEK293-Vector) or overexpressing p75^NTR (HEK293-p75) or TrkA (HEK293-TrkA), and PC12 cells wild type or shRNA knocked down for p75^NTR and TrkA, were cultured, collected by scraping on ice and washed twice with cold Phosphate Buffer Saline (PBS), pH 7.4. After centrifugation at 1,200 rpm, cells were homogenized in a 50 mM Tris-HCl buffer, pH 7.4 (at 4°C), containing freshly added protease inhibitors (1 mM PMSF and 1 µg/ml aprotinin). Crude membrane fractions were isolated by differential centrifugation at 2,500×g (10 min at 4°C, to remove unbroken cells and nuclei) and 102,000×g (1 h, at 4°C). Membranes were washed once with ice-cold 50 mM Tris–HCl buffer, pH 7.4, and re-suspended in the same buffer. […]
Membranes were incubated for 30 min at 25°C or overnight at 4°C, on a rotating plate; then they were collected on GF/B filters, prewetted in 0.5% PEI solution at 4°C. Filters were washed three times with ice-cold PBS, dried, and counted in scintillation fluid (SigmaFluor, Sigma) in a scintillation counter (Perkin Elmer, Foster City, CA) with 60% efficiency for Tritium. For saturation curves, specific binding (Bound, B) was calculated as the difference of Total Binding − Non Specific Binding. KDs were calculated from B/F over B Scatchard plots. […]

TrkA [5] = assay: TrkA protein levels in serum deprived PC12 cells (immunoblotting); format: cell-based; settings: serum deprived PC12, 12 to 48 h; 100 nM DHEA, 100 ng/ml NGF; n = 5, p<0.01
Experimental: as §2, §3

T2 sequence (P35739 33-799): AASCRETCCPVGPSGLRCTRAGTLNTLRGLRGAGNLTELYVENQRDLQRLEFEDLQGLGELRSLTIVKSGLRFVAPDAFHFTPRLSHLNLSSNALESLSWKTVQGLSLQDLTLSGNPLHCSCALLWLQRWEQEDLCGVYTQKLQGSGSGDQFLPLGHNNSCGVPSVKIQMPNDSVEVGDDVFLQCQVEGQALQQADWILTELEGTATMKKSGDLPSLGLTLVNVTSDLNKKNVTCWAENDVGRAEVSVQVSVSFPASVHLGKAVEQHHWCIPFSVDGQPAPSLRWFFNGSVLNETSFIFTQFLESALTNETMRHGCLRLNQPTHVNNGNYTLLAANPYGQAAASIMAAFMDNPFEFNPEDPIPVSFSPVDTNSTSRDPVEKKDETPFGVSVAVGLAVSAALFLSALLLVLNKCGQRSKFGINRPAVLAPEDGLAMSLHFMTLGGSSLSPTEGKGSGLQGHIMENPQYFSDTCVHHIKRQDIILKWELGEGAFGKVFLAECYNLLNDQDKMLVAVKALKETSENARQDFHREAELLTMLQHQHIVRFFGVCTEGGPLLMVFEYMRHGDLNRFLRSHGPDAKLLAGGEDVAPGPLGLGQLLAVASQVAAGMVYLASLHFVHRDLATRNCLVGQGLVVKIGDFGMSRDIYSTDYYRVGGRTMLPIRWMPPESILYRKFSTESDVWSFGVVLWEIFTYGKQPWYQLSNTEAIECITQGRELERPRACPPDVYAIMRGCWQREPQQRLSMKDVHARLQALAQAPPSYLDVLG

B1: NGF: neurotrophin nerve growth factor (protein)
chain: SSTHPVFHMGEFSVCDSVSVWVGDKTTATDIKGKEVTVLAEVNINNSVFRQYFFETKCRASNPVESGCRGIDSKHWNSYCTTTHTFVKALTTDEKQAAWRFIRIDTACVCVLSRKATRRG
association of p75NTR with effectors TRAF6 and RIP2 [1]: efficiently induced the association
dissociation of RhoGDI from p75NTR receptors [1]: facilitating the dissociation
p75NTR receptor levels (p75^NTR): significantly decreased
phosphorylation of TrkA (TrkA [2]): strongly increased
phosphorylation of Shc, ERK1/2, and Akt kinases [3]: strongly increased
Kd (TrkA receptor): 0.01 nM
phosphorylation of TrkA (Tyr490) (TrkA [4]): strongly induced
Kd (p75^NTR receptor): 1 nM
effect on apoptosis of nnr5 cells (nnr5 cells): induced apoptosis
IC50 (PC12 cell membranes): 0.92 ± 0.32 nM
TrkA receptor levels (TrkA [5]): significantly increased
